Data reported in the supplement of paper PMC9170038.

Test system: MS2 coat protein
Assay: apparent KD of MS2 coat protein; higher = weaker reporter binding
Conditions: Eterna round: R107; input ligand: arginine 13.2 mM
Experimental: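 RNA-MaP round R107: designed RNA switches with theophylline, tryptophan, arginine or FMN aptamers are transcribed on-chip within common flanks. They are titrated with SNAP-549-labelled MS2 coat protein in RNA-MaP buffer (100 mM Tris pH 7.5, 80 mM KCl, 4 mM MgCl2), without ligand or with the indicated ligand. Median apparent KD per design.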

Sequence	apparent KD of MS2 coat protein [µM]
GGAUUCGGCACGGCCGCCACUGCGGUGGUGUGACAUGAGGAUCACCCAUGUUGUCAUGCGGCCCUUAGGACCGGGUGGCGUUUCC [#1 Exclusion - Tryptophan B Attempt #21 (HarryS)]	0.0471
GGCGCUGCGUCGGCCGCCACUAGCGGGUAAUGGGUGUACAUGAGGAUCACCCAUGUAAUAUGGCCUAGGACCGGGACGUGGCGCC [Moose]	0.259
UGUAUGUGAUUUGAUACCAGACCAACUGGUAAUACAUGAGGAUCACCCAUGUAGAUUUGGGUCCCUUGGCAGCAAAUCGCAUACU [SSTheo B #23]	0.0456
UCUGCCGCGGCUCCGAUCCUCCUGUAGUUCCGAGGACCGGUACGGCCGCCACUCGUAGCACAUGAGGAUCACCCAUGUCUUGCGG [Tiqurabira]	0.0121
UAAAACAUGAGGAUCACCCAUGUAAAAGAUACCAGAGUGAUGAUCCUCCCUUGGCAGCUUAACGCUGAUUGAUUACAAUCAGCGA [Mat - Same State Theophlline A - Mod of Eli - D21]	0.0754
GGUAGCAGGACUGAUACCAGUCCAGCGAAUCAUACGACGCAACAUGAGGAUCACCCAUGUGACCCUUGGCAGCAGACUGCUACCG [Same State Theophylline B GF 28]	0.0294
AUUUAUAGUUGUGAUACCAGACUUACAUGAGGAUCACCCAUGUUACUUAAAUGUUUUGAUGUCCCUUGGCAGCACUGUUUUUUUA [JR_Nu_ExcTheophyB_Sub029]	0.0161
UAAUAAGUACCGGUCCUCAGAUCCUCAUGACGAGGACCGGUACGGCCGCCACUCGAAACAUGAGGAUCACCCAUGUAAUAAUAAC [Brourdmod03]	0.023
GGGCUCGGAGUGCGGCGUGUUCCGCUCCGUCGAGGACCGGUACGGCCGCCACUCGACAUGAGGAUCACCCAUGUCCGAGCGCGCG [#1 Exclusion - Tryptophan A Attempt #6 (HarryS)]	0.0192
UUAUAAGUACCGGUCCUCAGAUCCUCAUGACGAGGACCGGUACGGCCGCCACUCGAAACAUGAGGAUCACCCAUGUAAUAAUAAU [Brourdmod05]	0.0188
ACGACGCAUAGUGAUACCAGUAGAACAUGAGGAUCACCCAUGUCUGUUAUGUACAAAUACUGCCCUUGGCAGCACUAUGCGUCAG [SSTheo B #5]	0.00985
AUUAAGGAUAUGUAGAAGGCGGAGAAGAGACGAGGACCGGUACGGCCGCCACUCGUGUUAGUUAACAUGAGGAUCACCCAUGUAA [#06 Tryptophan A Same State]	0.0143
GGAUAGGACACGGCCGCCACUAGCUAGGAUACUAGCAACAUUUCCUCGCUUGAGGAUCACCCAAGUAGGACCGGGUGUCCUAUCG	0.302
UGGUACAUGAGGAUCACCCAUGUUCCAGAUACCAGACUCCCGGUGGUCCCUUGGCAGCUGGUGGUACAUGAGGAUCACCCAUGUG [Exclusion Theophylline A GF17]	0.0285
GGACUAACCAGAAGGAGCGGCACAAGCAGAAACUGCAAUCCUCCGCACGAGGAUCACCCGUGUCAGGUAGGUCGCUGGUUAGUCG [ArgBX 28]	0.0492
AGCAGCUGGUUUCUUUUCUUUACAGCUGCACGAGGACCGGUACGGCCGCCACUCGAGGACAUGAGGAUCACCCAUGUGCCGGUCG	0.0341
GGCCAAAAGGCGGCCGCCACUCAAGAGUAGCAUGGAAAGACAUGAGGAUCACCCAUGUAAAGAAAGAGGACCGGGCCAAAAGGCC	0.0284
CGGCCCUCACCUGAGGAUCACCCGGGUGAUACCAGCCUGGAAACAGGCCCUUGGCAGCACCAGGUCAUCAAAGAUGACCAAGCCG [TheoAX 26 #OpenEnded #AlternativeMS2]	0.0213

Sequence	apparent KD of MS2 coat protein [µM]
ACUGGACAUGAGGAUCACCCAUGUGGCGAUACCAGUUUCAGCGGGAACCCUUGGCAGCGCGGUGCCGGCCAUAGAAGUUCUGGGA [theeternabot_sameState_MS2_Theo_A_39]	0.0421
AAUGCUGCCAAGGAUUCCUCAUGAGCAGAUACCAGCUAGGAAACUAGCCCUUGGCAGCUGCAACAUGAGGAUCACCCAUGUAAUA [(T)'-(M)'-(T1)-(T2)-(M1)-(M2)_Design7]	0.031
GCGGUCCACUUGGAUACCAGCAGAUUAAUAAACAUGAGGAUCACCCAUGUAAGCGCCUUGUGCCCUUGGCAGCCAGGGUGGUCAG [theeternabot_sameState_MS2_Theo_B_50]	0.0555
UCUUGGUCCGCAAGGACCGUGAGUUGCGAUACCAGCACGGUAACGUGCCCUUGGCAGCGCACAUGAGGAUCACCCAUGUGGUGUU [#1 Exclusion - Theophylline A Attempt #15 (HarryS)]	0.0716
GUUUAGAGCUCGGCCGCCACUCAAACAUGAGGAUCACCCAUGUAAAACAUGAGGAUCACCCAUGUGAGGACCGGGAGAAAUAAGA [Exclusion Tryptophan B GF7]	0.242
UGUAUGUGAUUUGAUACCAGACCAGCUGGUGGUACCUGAGGAACACCCAGGUAGGUUUGGGUCCCUUGGCAGCAAAUCGCAUACU [SS Theo B #24 Ms7]	0.0362
GGACUAACCAGAAGGAGCGGCACGCAGAAACUGCAAAAUCCUCCGCACGAGGAUCACCCGUGUCAGGUAGGUCGCUGGUUAGUCG [ArgBX 28]	0.0367
UGUAAUGUGGGAAGGAGCGCAUACUUCACAUGAGGAUCACCCAUGUCAAGACGUGAGUCAGUGCAGGUAGGUCGCCUAGUUUAGA [Same State - Arginine B (Freestyle 18)]	0.0372
GCGCGGCGAGUGCGGCGUGUUCCGCUCCGUCGAGGACCGGUACGGCCGCCACUCGACAUGAGGAUCACCCAUGUCGCCGCGCGCG [Exclusion - Tryptophan A Attempt #3]	0.0139
AGUCACUCGAGGUGAUCUGACGAGUGGCAACGAGGACCGGUACGGCCGCCACUCGAAUAAACAUGAGGAUCACCCAUGUACAAAU [T''-M'-T'-T-MS2 - Design 11]	0.054
UAUAUAUAAACAUGAGGAUCACCCAUGUAACGAGGACCGGUACGGCCGCCACUCGGCCGGCAAGGGAGAGGACGGGAAACCGUCG [ETA NP+V+V2 #27]	0.0125
GUAGCGACGACGGCCGCCACUCACAGGUGAGGGUAGACCAACCUUCACAUGAGGAUCACCCAUGUGAGGACCGGGUUGUCGCUAC [#12 Exclusion Tryptophan B]	0.0575
UGACAUUGCUGCGAUACCAGACAUGAGGAUCACCCAUGUACCAAGGUAACCGAAAGGCAUGUCCCUUGGCAGCGCAGCAAUGUCU [MAT - Exclusion Theophlline B - Mod of Eli - D13]	0.0128
GCCUAGCAUCGAAGGAGCGGGCAUUACGCGCGAAAGCGCGAUGCACGAGGAUCACCCGUGUCCCAGGUAGGUCGCGAUGCUAGGC [SSAB Alternative Aptamer #4 V+V2]	0.153
GCGAUGGAGCGAAGGAGCGUGCUGGUACAUGAGGAUCACCCAUGUGAACCGCAGCGCUAAGCACAGGUAGGUCGCGCUCCAUCGC [EAB NP+V+V2 #14]	0.102
UUUACAUGAGGAUCACCCAUGUGCCAUGAUACCAGACAUGAAAAUGUCCCUUGGCAGCAUGAGUGAUAUGCGUCGGAAACGACGC [Jundrov]	0.499
GGAUAGAUAGGAGAUACCAGAUACAUCAACAUGAGGAUCACCCAUGUGUCUGCACUAAGUGUCCCUUGGCAGCUCGGAGAUCUGA [#16 Same State - Theophylline B]	0.024
GGGAAAGAAUGUGAUACCAGAGAACCGGUCUCCAUCAAUAUACAUGAGGAUCACCCAUGUCUCCCUUGGCAGCACCAUCAUCAAA [Exclusion Theophylline B GF 27]	0.021
